Test results reported in PMC5303827 (Nature Communications, 2017).

T1: Ufd2p (S. cerevisiae, UniProt P54860 1-961)
T1 construct: Ufd2p, S. cerevisiae, amino acids 1-961; also called wild-type Ufd2p; source: E. coli Rosetta (DE3), purified
T1 sequence (looked up): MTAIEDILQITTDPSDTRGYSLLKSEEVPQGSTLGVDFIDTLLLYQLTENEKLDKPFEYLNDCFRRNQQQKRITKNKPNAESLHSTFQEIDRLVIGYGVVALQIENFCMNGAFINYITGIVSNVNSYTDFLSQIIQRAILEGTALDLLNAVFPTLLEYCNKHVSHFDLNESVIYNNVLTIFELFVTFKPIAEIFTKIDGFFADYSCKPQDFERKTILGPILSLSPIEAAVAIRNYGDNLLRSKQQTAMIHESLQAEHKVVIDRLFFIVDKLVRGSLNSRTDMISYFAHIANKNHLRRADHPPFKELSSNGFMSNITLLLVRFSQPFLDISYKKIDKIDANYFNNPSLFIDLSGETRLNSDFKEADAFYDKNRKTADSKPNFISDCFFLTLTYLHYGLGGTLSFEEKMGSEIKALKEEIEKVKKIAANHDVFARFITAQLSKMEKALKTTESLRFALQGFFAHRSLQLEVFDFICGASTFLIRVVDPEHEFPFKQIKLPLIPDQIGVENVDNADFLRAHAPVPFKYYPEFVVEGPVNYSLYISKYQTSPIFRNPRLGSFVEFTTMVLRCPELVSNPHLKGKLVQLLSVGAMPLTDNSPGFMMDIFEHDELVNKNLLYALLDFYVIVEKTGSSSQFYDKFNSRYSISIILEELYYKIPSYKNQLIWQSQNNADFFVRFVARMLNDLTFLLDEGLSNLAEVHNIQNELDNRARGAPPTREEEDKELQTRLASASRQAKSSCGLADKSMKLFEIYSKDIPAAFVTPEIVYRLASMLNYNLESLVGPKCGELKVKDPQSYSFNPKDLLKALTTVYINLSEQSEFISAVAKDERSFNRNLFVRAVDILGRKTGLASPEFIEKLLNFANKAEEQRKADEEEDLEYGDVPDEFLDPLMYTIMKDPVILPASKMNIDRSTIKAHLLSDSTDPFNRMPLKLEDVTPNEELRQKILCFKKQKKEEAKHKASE

T2: Ufd2p NLM (S. cerevisiae, UniProt P54860 1-961, E51A | K52A | L53A | D54A | K55A | E105A | N106A | M109A | N110A)
T2 construct: Ufd2p, S. cerevisiae, amino acids 1-961, two N-terminal loops mutated to alanine; prey of the GST-Rad23p pull-down and enzyme of the ubiquitination reactions; also called Ufd2 NLM
T2 sequence (looked up): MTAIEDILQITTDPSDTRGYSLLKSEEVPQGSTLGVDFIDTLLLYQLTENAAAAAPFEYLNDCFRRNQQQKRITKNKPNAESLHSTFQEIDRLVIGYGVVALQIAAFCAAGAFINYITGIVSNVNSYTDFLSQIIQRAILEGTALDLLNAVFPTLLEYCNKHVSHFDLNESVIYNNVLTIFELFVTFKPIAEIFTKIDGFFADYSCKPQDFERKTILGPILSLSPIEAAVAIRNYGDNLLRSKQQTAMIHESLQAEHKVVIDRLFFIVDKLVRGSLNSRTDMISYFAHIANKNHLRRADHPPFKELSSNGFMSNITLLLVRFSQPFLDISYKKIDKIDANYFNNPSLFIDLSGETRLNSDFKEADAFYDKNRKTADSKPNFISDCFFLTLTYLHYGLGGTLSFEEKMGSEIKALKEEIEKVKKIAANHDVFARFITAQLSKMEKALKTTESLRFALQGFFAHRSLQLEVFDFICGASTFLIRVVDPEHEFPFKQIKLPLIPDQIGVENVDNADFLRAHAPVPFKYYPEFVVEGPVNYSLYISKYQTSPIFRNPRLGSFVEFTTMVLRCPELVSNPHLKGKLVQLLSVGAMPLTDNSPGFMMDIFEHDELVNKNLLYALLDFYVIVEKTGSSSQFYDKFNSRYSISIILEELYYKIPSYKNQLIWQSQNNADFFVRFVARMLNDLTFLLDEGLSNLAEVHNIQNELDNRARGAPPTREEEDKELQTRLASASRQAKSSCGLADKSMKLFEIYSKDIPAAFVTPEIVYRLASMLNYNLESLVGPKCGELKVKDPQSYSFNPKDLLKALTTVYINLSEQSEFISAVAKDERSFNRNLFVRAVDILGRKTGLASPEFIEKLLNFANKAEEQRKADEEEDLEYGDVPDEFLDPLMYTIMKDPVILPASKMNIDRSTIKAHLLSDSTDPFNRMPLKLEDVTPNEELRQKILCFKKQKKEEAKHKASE

T3: wild-type Ufd2p (GST pull-down with Rad23p, Supplementary Fig. 14) (S. cerevisiae, UniProt P54860 1-961)
T3 construct: Ufd2p, S. cerevisiae; amino acids 1-961; May be the same as m2 if Ufd2p was the GST-tagged bait
T3 sequence (looked up): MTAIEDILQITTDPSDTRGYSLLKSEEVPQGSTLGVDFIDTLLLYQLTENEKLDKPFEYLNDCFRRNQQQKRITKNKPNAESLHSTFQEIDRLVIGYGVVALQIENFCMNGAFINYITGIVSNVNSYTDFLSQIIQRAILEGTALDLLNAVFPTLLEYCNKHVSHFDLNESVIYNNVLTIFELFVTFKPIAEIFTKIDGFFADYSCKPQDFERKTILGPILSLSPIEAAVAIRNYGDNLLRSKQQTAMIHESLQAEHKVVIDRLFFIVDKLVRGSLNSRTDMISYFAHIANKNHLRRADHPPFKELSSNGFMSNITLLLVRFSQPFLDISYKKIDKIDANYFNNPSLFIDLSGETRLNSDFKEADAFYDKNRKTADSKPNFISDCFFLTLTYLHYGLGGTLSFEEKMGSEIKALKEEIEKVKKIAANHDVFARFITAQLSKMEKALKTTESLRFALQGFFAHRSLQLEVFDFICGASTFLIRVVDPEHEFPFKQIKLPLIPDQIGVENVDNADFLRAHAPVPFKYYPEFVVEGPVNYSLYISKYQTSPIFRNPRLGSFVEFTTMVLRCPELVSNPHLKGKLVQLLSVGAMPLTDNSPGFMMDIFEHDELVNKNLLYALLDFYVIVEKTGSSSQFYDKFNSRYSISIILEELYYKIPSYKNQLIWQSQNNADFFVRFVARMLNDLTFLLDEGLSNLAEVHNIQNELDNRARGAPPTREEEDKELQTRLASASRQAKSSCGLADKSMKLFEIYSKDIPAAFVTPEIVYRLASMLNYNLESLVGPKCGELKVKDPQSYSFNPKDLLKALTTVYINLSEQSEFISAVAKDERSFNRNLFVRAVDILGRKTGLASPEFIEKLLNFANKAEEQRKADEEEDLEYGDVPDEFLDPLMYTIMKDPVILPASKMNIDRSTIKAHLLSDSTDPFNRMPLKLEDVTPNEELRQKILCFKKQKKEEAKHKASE

T4: Ufd2p NLM (GST pull-down with Rad23p, Supplementary Fig. 14) (S. cerevisiae, UniProt P54860 1-961, E51A | K52A | L53A | D54A | K55A | E105A | N106A | M109A | N110A)
T4 construct: Ufd2p, S. cerevisiae; 1-961 with residues of the two N-terminal loops mutated to alanine; May be the same as m12 if Ufd2p NLM was the GST-tagged bait
T4 sequence (looked up): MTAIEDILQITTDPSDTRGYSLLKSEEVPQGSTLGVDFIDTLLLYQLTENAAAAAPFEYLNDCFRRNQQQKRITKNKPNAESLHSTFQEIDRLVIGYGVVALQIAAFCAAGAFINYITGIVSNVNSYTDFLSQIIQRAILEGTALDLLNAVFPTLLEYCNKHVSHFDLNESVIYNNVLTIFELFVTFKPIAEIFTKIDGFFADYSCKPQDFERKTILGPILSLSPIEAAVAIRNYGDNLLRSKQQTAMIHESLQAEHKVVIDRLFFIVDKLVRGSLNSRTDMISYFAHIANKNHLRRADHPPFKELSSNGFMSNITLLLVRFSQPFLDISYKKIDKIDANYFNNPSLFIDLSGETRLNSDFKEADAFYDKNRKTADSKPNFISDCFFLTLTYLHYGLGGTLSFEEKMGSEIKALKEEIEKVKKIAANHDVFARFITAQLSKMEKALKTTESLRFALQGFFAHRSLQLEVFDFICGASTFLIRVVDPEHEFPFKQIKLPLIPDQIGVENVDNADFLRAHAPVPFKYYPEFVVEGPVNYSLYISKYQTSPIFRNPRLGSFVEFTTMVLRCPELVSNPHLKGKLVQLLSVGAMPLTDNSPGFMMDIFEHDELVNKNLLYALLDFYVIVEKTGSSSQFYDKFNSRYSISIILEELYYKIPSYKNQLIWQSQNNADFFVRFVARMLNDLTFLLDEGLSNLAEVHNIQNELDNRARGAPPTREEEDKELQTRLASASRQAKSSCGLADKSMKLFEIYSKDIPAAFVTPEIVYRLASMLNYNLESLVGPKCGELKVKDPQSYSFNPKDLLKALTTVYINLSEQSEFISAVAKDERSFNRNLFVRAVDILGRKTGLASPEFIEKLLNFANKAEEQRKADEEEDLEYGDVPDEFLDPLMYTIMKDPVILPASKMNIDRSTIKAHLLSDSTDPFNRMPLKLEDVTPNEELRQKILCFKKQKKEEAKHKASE


Assays:
Conditions in all cases: both partners purified
Ufd2p = biological target: T1, Ufd2p; assay: pull-down; GST-Rad23p used to pull down Ufd2p, Ufd2p N mut-1 or Ufd2p NLM; blot with anti-Ufd2; GST as control
Ufd2p NLM = biological target: T2, Ufd2p NLM; assay: as above
[1] = biological target: T3, wild-type Ufd2p (GST pull-down with …); assay: pull-down; GST pull-down of Ufd2p or Ufd2p NLM with Rad23p (Supplementary Fig. 14); which partner carried GST is not told
[2] = biological target: T4, Ufd2p NLM (GST pull-down with Rad23p, …); assay: as above

| binding result (Ufd2p) | binding result (Ufd2p NLM) | binding result [1] | binding result [2] | Binder |
| --- | --- | --- | --- | --- |
| binds | binds |  |  | GST-Rad23p (natural protein, S. cerevisiae, UniProt P32628 1-398, looked up, Rad23p, ubiquitin receptor for the proteasome, yeast; source: E. coli Rosetta (DE3), purified (Glutathione Sepharose 4B, size exclusion chromatography); not shown: GST, N-terminal, kept) MVSLTFKNFKKEKVPLDLEPSNTILETKTKLAQSISCEESQIKLIYSGKVLQDSKTVSECGLKDGDQVVFMVSQKKSTKTKVTEPPIAPESATTPGRENSTEASPSTDASAAPAATAPEGSQPQEEQTATTERTESASTPGFVVGTERNETIERIMEMGYQREEVERALRAAFNNPDRAVEYLLMGIPENLRQPEPQQQTAAAAEQPSTAATTAEQPAEDDLFAQAAQGGNASSGALGTTGGATDAAQGGPPGSIGLTVEDLLSLRQVVSGNPEALAPLLENISARYPQLREHIMANPEVFVSMLLEAVGDNMQDVMEGADDMVEGEDIEVTGEAAAAGLGQGEGEGSFQVDYTPEDDQAISRLCELGFERDLVIQVYFACDKNEEAAANILFSDHAD |
|  |  | binds | binds | Rad23p (GST pull-down with Ufd2p, Supplementary Fig. 14) (natural protein, UniProt P32628 1-398, looked up, Rad23p; May be the same as m19 if Rad23p was the GST-tagged bait) MVSLTFKNFKKEKVPLDLEPSNTILETKTKLAQSISCEESQIKLIYSGKVLQDSKTVSECGLKDGDQVVFMVSQKKSTKTKVTEPPIAPESATTPGRENSTEASPSTDASAAPAATAPEGSQPQEEQTATTERTESASTPGFVVGTERNETIERIMEMGYQREEVERALRAAFNNPDRAVEYLLMGIPENLRQPEPQQQTAAAAEQPSTAATTAEQPAEDDLFAQAAQGGNASSGALGTTGGATDAAQGGPPGSIGLTVEDLLSLRQVVSGNPEALAPLLENISARYPQLREHIMANPEVFVSMLLEAVGDNMQDVMEGADDMVEGEDIEVTGEAAAAGLGQGEGEGSFQVDYTPEDDQAISRLCELGFERDLVIQVYFACDKNEEAAANILFSDHAD |
